B3: cynomolgus monkey IL-13 (NHP IL-13), recombinant (ligand)
chain: SPVPPSTALKELIEELVNITQNQKAPLCNGSMVWSINLTAGVYCAALESLINVSGCSAIEKTQRMLNGFCPHKVSAGQFSSLRVRDTKIEVAQFVKDLLVHLKKLFREGQFN
notes: also called non-human primate IL-13; cynomolgus IL-13
B4: soluble human IL-13 receptor alpha2 with a human IgG1 Fc tail (sIL13Rα2-Fc) (Fc fusion, UniProt Q14627 27-343, looked up, not shown: a dimerising Fc or GST)
chain: DTEIKVNPPQDFEIVDPGYLGYLYLQWQPPLSLDHFKECTVEYELKYRNIGSETWKTIITKNLHYKDGFDLNKGIEAKIHTLLPWQCTNGSEVQSSWAETTYWISPQGIPETKVQDMDCVYYNWQYLLCSWKPGIGVLLDTNYNLFYWYEGLDHALQCVDYIKADGQNIGCRFPYLEASDYKDFYICVNGSSENKPIRSSYFTFQLQNIVKPLPPVYLTFTRESSCEIKLKWSIPLGPIPARCFDYEIEIREDDTTLVTATVENETYTLKTTNETRQLCFVVRSKVNIYCSDDGIWSEWSDKQCWEGEDLSKKTLLR

For assay [1], the target named is native human IL-13 (crude preparation from activated human cord blood Th2 cells) (human, UniProt P35225 34-146). In words: cell-based or functional assay.
Assay [2] has as its target B3. Nature of the assay: SPR (BIACORE), antibody captured on goat anti-human IgG Fc, NHP-IL-13 0.09-600 nM, 1:1 model, 22.5 C. In general terms: Surface plasmon resonance follows binding to a sensor surface in real time, without labels.
The target of assay [3] is B3. In words: SPR (BIACORE), Kd = kd / ka.
Assay [4] concerns the target B4. Nature of the assay: not described.
For assay [5], the target named is B3. In words: cell-based or functional assay.

native human IL-13 (crude preparation from activated human cord blood Th2 cells), sequence (P35225 other isoform, or with tags, fused parts or gaps): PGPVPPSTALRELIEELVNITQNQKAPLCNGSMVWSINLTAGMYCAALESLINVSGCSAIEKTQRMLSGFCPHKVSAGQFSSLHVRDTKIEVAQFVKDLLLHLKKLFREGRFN

B1: humanized MJ 2-7 V2.11 IgG1 with a mutated CH2 domain (antibody, V domains shown)
VH: EVQLVESGGGLVQPGGSLRLSCAASGFNIKDTYIHWVRQAPGKGLEWIGRIDPANDNIKYDPKFQGRFTISADNAKNSAYLQMNSLRAEDTAVYYCARSEENWYDFFDYWGQGTLVTVSS
VL: DIQMTQSPSSLSASVGDRVTITCRSSQSIVHSNGNTYLEWYQQKPGKAPKLLIYKVSNRFSGVPSRFSGSGSGTDFTLTISSLQPEDFATYYCFQGSHIPYTFGGGTKVEIKR
notes: 'QSΓVΉS' read as QSIVHS; also called huMJ 2-7 V2.11; hMJ2-7 V2-11
In general, koff refers to a measure of how fast the partners let go of each other. By kon is commonly meant the second-order rate constant of association. The term Kd denotes a measure of binding affinity in units of concentration. In the case of B1, in assay [1], the “IC50, STAT6 phosphorylation in HT-29 cells (0.3 ng/ml native human IL-13)” value (“IC50, STAT6 phosphorylation” for short) is 0.52 nM. Further, in assay [2], the koff worked out at 0.000889 s⁻¹ and the kon stood at 2.05e+07 M⁻¹ s⁻¹. The Kd in assay [3] was 0.043 nM.

B2: humanized MJ 2-7 V2 (hMJ 2-7 VH V2 with hMJ 2-7 VL V2) (antibody, human IgG1, V domains shown)
VH: EVQLVESGGGLVQPGGSLRLSCAASGFNIKDTYIHWVRQAPGKGLEWVARIDPANDNIKYDPKFQGRFTISRDNAKNSLYLQMNSLRAEDTAVYYCARSEENWYDFFDYWGQGTLVTVSS
VL: DIQMTQSPSSLSASVGDRVTITCRSSQSIVHSNGNTYLEWYQQKPGKAPKLLIYKVSNRFSGVPSRFSGSGSGTDFTLTISSLQPEDFATYYCFQGSHIPYTFGGGTKVEIKR
As to B2, the “concentration for half-maximal inhibition of native human IL-13 bioactivity, against murine MJ2-7” value in assay [1] was ~110 fold greater than murine MJ2-7.
As for B3, the binding result in assay [4] is recorded as “binds”.
Consider B4, for which the “IC50, STAT6 phosphorylation” value in assay [1] is 0.33 nM.

B5: mouse monoclonal antibody C65 (antibody, V domains shown)
VH: QVQLKESGPGLVAPSQSLSITCTVSGFSLTGYGVNWVRQPPGKGLEWLGIIWGDGSTDYNSALKSRLIINKDNSKSQVFLKMNSLQTDDTARYFCARDKTFYYDGFYRGRMDYWGQGTSVTVSS
VL: DVQMIQSPSSLSASLGDIVTMTCQASQGTSINLNWFQQKPGKAPKLLIFGASNLEDGVPSRFSGSRYGTNFTLTISSLEDEDMATYFCLQHSYLPWTFGGGTKLEIK
With B5, in assay [5], the “monocyte CD23 expression (3 ng/ml NHP IL-13)” value was ~20 fold less active than MJ2-7 and sIL-13Rα2-Fc. In assay [1], the “STAT6 phosphorylation in HT-29 cells (0.3 ng/ml native human IL-13)” value is ~20 fold less active.

B6: mouse monoclonal antibody MJ 2-7 (antibody, mouse IgG1, V domains shown)
VH: EVQLQQSGAELVKPGASVKLSCTGSGFNIKDTYIHWVKQRPEQGLEWIGRIDPANDNIKYDPKFQGKATITADTSSNTAYLQLNSLTSEDTAVYYCARSEENWYDFFDYWGQGTTLTVSS
VL: DVLMTQTPLSLPVSLGDQASISCRSSQSIVHSNGNTYLEWYLQKPGQSPKLLIYKVSNRFSGVPDRFSGSGSGTDFTLKISRVEAEDLGVYYCFQGSHIPYTFGGGTKLEIK
Regarding B6, in assay [5], the “IC50, inhibition of CD23 expression (non-human primate IL-13 at 1 ng/ml)” value was ~0.242 nM. For the same molecule, in assay [1], the “IC50, STAT6 phosphorylation” value amounted to 0.48 nM; the “IC50, inhibition of STAT6 phosphorylation (native human IL-13 at 1 ng/ml)” value is ~0.293 nM; the “IC50, tenascin C production by BEAS-2B cells (3 ng/ml native human IL-13)” value was ~0.1 nM.

Source of the values: patent publication WO2008073463A2 (dated 2008).
